Publication PMC3572029

Biological target: HSF1β-EGFP (heat shock factor 1, short β splicing isoform, fused to EGFP) (mouse)
Sequence (P38532 whole entry, the tested form may be a part, canonical isoform): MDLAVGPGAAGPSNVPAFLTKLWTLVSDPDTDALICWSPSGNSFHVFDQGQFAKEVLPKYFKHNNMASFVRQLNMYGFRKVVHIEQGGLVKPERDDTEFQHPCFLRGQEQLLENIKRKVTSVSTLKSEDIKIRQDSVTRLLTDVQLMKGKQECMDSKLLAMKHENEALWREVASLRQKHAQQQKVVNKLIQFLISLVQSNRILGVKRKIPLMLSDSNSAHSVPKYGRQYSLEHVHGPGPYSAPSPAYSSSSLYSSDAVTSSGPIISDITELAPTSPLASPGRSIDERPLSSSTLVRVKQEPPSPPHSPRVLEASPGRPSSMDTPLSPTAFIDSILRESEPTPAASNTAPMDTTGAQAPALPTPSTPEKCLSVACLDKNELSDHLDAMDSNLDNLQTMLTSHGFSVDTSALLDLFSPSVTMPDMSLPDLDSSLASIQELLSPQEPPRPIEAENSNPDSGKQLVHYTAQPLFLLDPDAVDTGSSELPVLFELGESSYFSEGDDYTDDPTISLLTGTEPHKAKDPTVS

## HSF2β (heat shock factor 2, short β splicing isoform) (natural protein)
  HSE-driven firefly luciferase reporter activity of HSF1β in Hsf1.2−/− iMEFs co-transfected with HSF2β, MG132 at 2.5 µM: 3 fold
